Results taken from article PMC3900722.

Molecular target: hemocyanin from Fissurella latimarginata (Fissurella latimarginata)
Assay: negative-stain transmission electron microscopy; purified FLH 100 µg/ml on parlodion-coated copper grid, stained with 1-2% aqueous uranyl acetate, 80 kV; quaternary structure of the assembled protein

“hemocyanin from Fissurella latimarginata (natural protein)” showed a stoichiometry N of 20 subunits.
